Laboratory results taken from paper PMC7110144.
Changes are numbered by the printed parent chain. Numbers in names are those of the source. Values belong to the binder of their own block, whether it stands above or below them.

Molecular target: T1, CENP-A-GFP-LacI (in S2 cells), Q9V6Q2
T1 chain: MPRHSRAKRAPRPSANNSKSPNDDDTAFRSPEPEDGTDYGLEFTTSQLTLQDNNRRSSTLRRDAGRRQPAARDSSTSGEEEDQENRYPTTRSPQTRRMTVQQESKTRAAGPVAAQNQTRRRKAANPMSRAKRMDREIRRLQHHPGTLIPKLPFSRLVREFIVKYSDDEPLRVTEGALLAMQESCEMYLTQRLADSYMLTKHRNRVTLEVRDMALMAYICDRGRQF
Assay: LacO/LacI tethering assay in Drosophila S2 cells (fluorescence intensity of CAL1-V5 at the tethering site)
Settings: chain shown with the change;; parent: est. 1800; read off a plot

- response: 120 a.u.
B1: CAL1WT-V5 (in S2 cells), Q9VEN2 W22R; F29R (protein)
chain: MANAVVDEETLEAMVYERSKARSSKMADRASLEDGMEIDVAEFDNLFHGEDEDPDLDDVAKEAVEDNVPDEAKLEMGHINATSVTELTLILCANEDNEAKAEIEEILNQTVPVVEEHKRKWREAGLDRILDTFDEKQIEHHVGRWMRRHNSVYLEASPPKYLPPHHNSISDESDESMHSIDTARYIQQSRRRNAHMTNKNMTTIKMYRKHSHKRDELRAKYAYGDEQEHRHHMQAVLLRRRERERQLAYLASTPMQCVYSSGHHMRRKNLRKRRINSWMFDSASSSEEDTSFGGCDCHSCRRHYALSRSVYQSCPYGRGQREYHHRQMASRTMHTMRRQHTFDMEMDLRPRLPENECSCCNSDRLCSNVIHIANSSTEEWVVENRSNHLTQETQEKTRKQKHQPMDARKVSHQPVCSKGHEQKPLSSKATSVSKLVLSKEKYMQMFDSESSDEDNALAKKGLLCCSDKKKGMTFPTPNAAGKITHPTSSAKKAIRKEARPNGLAQIQEEGPTATNSPIESTYLPVAHMKSVSIDGSSGTSATFESPAKKAPKRGIRETSPLNGNELQQLISTIPIADEKASSLMEKVDNCIGRESFDDRNKDFMHMENSSTKTAVEKSTKQKRVSGKKSEIPKSIITNNEILEKNSTETLSEKQVAAKAKKQSVRKTGATGKPSTSRLKKSEKTKTTSSVTSTSKLEQVREEESDVSSEVLAKPKPQCSTTASILKQGGDGASNSEDDLQIALAMSKATYKEEQQKRKKTKREPSNKQPQSPAEKSMTVFNNQSVACNSTALANDTACYRVLPKRRGVKRAAAVSTTEEKTATNSSSSPTSSLEEMGSPTGGDPDCTVVTSTTGCEPPASERQEIPATIKITKRGILLHSPSAPEGASFTLTEQGLGKIIGERWARKYLKYHIGSRSFDSRHSVYYQPTPQLAAALSAPQDAQNIGNISGSSASDDDIFEQINRYGTVYSILENNSGDK

- response: 590 a.u.
B2: CAL1WT-V5 (in S2 cells), Q9VEN2 F43R (protein)
chain: B1 chain with R22W, R29F, F43R
